# From US20110008766A1
# Target: HIV antigen
# Assay: FRET quenching titration in solution; one value given for outer and inner domain
row,Binder,Kd [nM]
1,DVD715 (antibody) VH: QVQLQQSGAELMKPGASVKISCKASGYTFTSYWIEWIKQRPGHGLEWIGEILPGTGSLNNNEKFRDKATFTADTSSNTAYMQLSSLTSEDSAVYYCARGYRYDGWFAYWGQGTLVTVSAASTKGPQVQLQQSGAELMKPGASVKISCKASGYTFTSYWIEWIKQRPGHGLEWIGEILPGTGSLNNNEKFRDKATFTADTSSNTAYMQLSSLTSEDSAVYYCARGYRYDGWFAYWGQGTLVTVSA VL: DIQMTQSPASLSASVGETVTITCRTSENIYSYLAWYQQKPGKSPHLLVYNTKTLAEGVPSRFSGSGSGTQFSLKINSLQPEDFGSYYCQHHYDSPLTFGSGTKLELKRTVAAPDIQMTQSPASLSASVGETVTITCRTSENIYSYLAWYQQKPGKSPHLLVYNTKTLAEGVPSRFSGSGSGTQFSLKINSLQPEDFGSYYCQHHYDSPLTFGSGTKLELKR,< 0.02
2,DVD748 (bispecific antibody) VH: EVQLQQSGPELVKPGASMKISCKASDYSFTAYTIHWMKQSHGKNLEWIGLINPYNGGTSYNQKFQGRATLTVDKSSSIAYMELLSLTSEDSAVYYCARRGYDREGHYYAMDYWGQGTSVTVSSASTKGPSVFPLAPQVQLQQSGAELMKPGASVKISCKASGYTFTSYWIEWIKQRPGHGLEWIGEILPGTGSLNNNEKFRDKATFTADTSSNTAYMQLSSLTSEDSAVYYCARGYRYDGWFAYWGQGTLVTVSA VL: DIQMTQSPASLAASVGETVTITCRASENIYTFLAWYQQKQGKSPQLLVYTTKTLAEGVPSRFSGSGSGTQFSLKIKSLQPEDFGSYYCQHHYGLPLTFGAGTKLELKRTVAAPSVFIFPPDIQMTQSPASLSASVGETVTITCRTSENIYSYLAWYQQKPGKSPHLLVYNTKTLAEGVPSRFSGSGSGTQFSLKINSLQPEDFGSYYCQHHYDSPLTFGSGTKLELKR,< 0.03
3,DVD716 (antibody) VH: QVQLQQSGAELMKPGASVKISCKASGYTFTSYWIEWIKQRPGHGLEWIGEILPGTGSLNNNEKFRDKATFTADTSSNTAYMQLSSLTSEDSAVYYCARGYRYDGWFAYWGQGTLVTVSAASTKGPSVFPLAPQVQLQQSGAELMKPGASVKISCKASGYTFTSYWIEWIKQRPGHGLEWIGEILPGTGSLNNNEKFRDKATFTADTSSNTAYMQLSSLTSEDSAVYYCARGYRYDGWFAYWGQGTLVTVSA VL: DIQMTQSPASLSASVGETVTITCRTSENIYSYLAWYQQKPGKSPHLLVYNTKTLAEGVPSRFSGSGSGTQFSLKINSLQPEDFGSYYCQHHYDSPLTFGSGTKLELKRTVAAPSVFIFPPDIQMTQSPASLSASVGETVTITCRTSENIYSYLAWYQQKPGKSPHLLVYNTKTLAEGVPSRFSGSGSGTQFSLKINSLQPEDFGSYYCQHHYDSPLTFGSGTKLELKR,< 0.02
4,DVD746 (bispecific antibody) VH: QVQLQQSGAELMKPGASVKISCKASGYTFTSYWIEWIKQRPGHGLEWIGEILPGTGSLNNNEKFRDKATFTADTSSNTAYMQLSSLTSEDSAVYYCARGYRYDGWFAYWGQGTLVTVSAASTKGPSVFPLAPEVQLQQSGPELVKPGASMKISCKASDYSFTAYTIHWMKQSHGKNLEWIGLINPYNGGTSYNQKFQGRATLTVDKSSSIAYMELLSLTSEDSAVYYCARRGYDREGHYYAMDYWGQGTSVTVSS VL: DIQMTQSPASLSASVGETVTITCRTSENIYSYLAWYQQKPGKSPHLLVYNTKTLAEGVPSRFSGSGSGTQFSLKINSLQPEDFGSYYCQHHYDSPLTFGSGTKLELKRTVAAPSVFIFPPDIQMTQSPASLAASVGETVTITCRASENIYTFLAWYQQKQGKSPQLLVYTTKTLAEGVPSRFSGSGSGTQFSLKIKSLQPEDFGSYYCQHHYGLPLTFGAGTKLELKR,0.2
5,DVD745 (antibody) VH: QIQLVQSGPELKKPGETVKISCKASGYTFTDYSMHWVKQAPGKGLKWMGWIHTETGEPRYVDDFKGRFAFSLETSASTAYLQINNLKNEDTATYFCARDSYYFGSSYYFDYWGQGTTLTVSSASTKGPQIQLVQSGPELKKPGETVKISCKASGYTFTDYSMHWVKQAPGKGLKWMGWIHTETGEPRYVDDFKGRFAFSLETSASTAYLQINNLKNEDTATYFCARDSYYFGSSYYFDYWGQGTTLTVSS VL: DTVMTQSHKFMSTSVGDRVSITCKASQDVSSAVAWYQQKPGQSPKLLIYSASYRYTGVPDRFTGSGSGMDFTFTISSVQAEDLAVYYCQQHYSTPLTFGAGTKLELERTVAAPDTVMTQSHKFMSTSVGDRVSITCKASQDVSSAVAWYQQKPGQSPKLLIYSASYRYTGVPDRFTGSGSGMDFTFTISSVQAEDLAVYYCQQHYSTPLTFGAGTKLELER,0.4

# The remaining lines, values ahead:
row,Kd [nM],Binder
1,0.4,DVD744 (antibody) VH: QIQLVQSGPELKKPGETVKISCKASGYTFTDYSMHWVKQAPGKGLKWMGWIHTETGEPRYVDDFKGRFAFSLETSASTAYLQINNLKNEDTATYFCARDSYYFGSSYYFDYWGQGTTLTVSSASTKGPSVFPLAPQIQLVQSGPELKKPGETVKISCKASGYTFTDYSMHWVKQAPGKGLKWMGWIHTETGEPRYVDDFKGRFAFSLETSASTAYLQINNLKNEDTATYFCARDSYYFGSSYYFDYWGQGTTLTVSS VL: DTVMTQSHKFMSTSVGDRVSITCKASQDVSSAVAWYQQKPGQSPKLLIYSASYRYTGVPDRFTGSGSGMDFTFTISSVQAEDLAVYYCQQHYSTPLTFGAGTKLELERTVAAPSVFIFPPDTVMTQSHKFMSTSVGDRVSITCKASQDVSSAVAWYQQKPGQSPKLLIYSASYRYTGVPDRFTGSGSGMDFTFTISSVQAEDLAVYYCQQHYSTPLTFGAGTKLELER
2,< 0.02,DVD750 (antibody) VH: EVQLQQSGPELVQPGASMKISCKASGYSFTDYTMNWVKQSHGKNLEWIGLINPYNGGSRYNQKFMAKATLTVDKSSNTAYMELLSVTSEDSAVYYCARDAGYFGSGFYFDYWGQGTTLTVSSASTKGPSVFPLAPEVQLQQSGPELVQPGASMKISCKASGYSFTDYTMNWVKQSHGKNLEWIGLINPYNGGSRYNQKFMAKATLTVDKSSNTAYMELLSVTSEDSAVYYCARDAGYFGSGFYFDYWGQGTTLTVSS VL: DIVMTQSHKFMSTSVGDRVSITCKASQDVSTAVAWYQQKPGQSPKLLIYSASYRSTGVPDRFTGSGSGTDFTFTISSVQAEDLAVYYCQQHYSTPTFGAGTKLELKRTVAAPSVFIFPPDIVMTQSHKFMSTSVGDRVSITCKASQDVSTAVAWYQQKPGQSPKLLIYSASYRSTGVPDRFTGSGSGTDFTFTISSVQAEDLAVYYCQQHYSTPTFGAGTKLELKR
3,< 0.06,DVD747 (bispecific antibody) VH: QVQLQQSGAELMKPGASVKISCKASGYTFTSYWIEWIKQRPGHGLEWIGEILPGTGSLNNNEKFRDKATFTADTSSNTAYMQLSSLTSEDSAVYYCARGYRYDGWFAYWGQGTLVTVSAASTKGPSVFPLAPASTKGPSVFPLAPEVQLQQSGPELVKPGASMKISCKASDYSFTAYTIHWMKQSHGKNLEWIGLINPYNGGTSYNQKFQGRATLTVDKSSSIAYMELLSLTSEDSAVYYCARRGYDREGHYYAMDYWGQGTSVTVSS VL: DIQMTQSPASLSASVGETVTITCRTSENIYSYLAWYQQKPGKSPHLLVYNTKTLAEGVPSRFSGSGSGTQFSLKINSLQPEDFGSYYCQHHYDSPLTFGSGTKLELKRTVAAPSVFIFPPTVAAPSVFIFPPDIQMTQSPASLAASVGETVTITCRASENIYTFLAWYQQKQGKSPQLLVYTTKTLAEGVPSRFSGSGSGTQFSLKIKSLQPEDFGSYYCQHHYGLPLTFGAGTKLELKR
